Test results from the supplement of paper PMC5998384.

Key:
[1] = test system: HeLa Kyoto; experiment: thermal stability score vs G1/S (z-score of summed log2 fold changes over temperatures); higher = more thermally stable than in G1/S
[2] = test system: HeLa Kyoto; experiment: melting temperature (median over replicates), in situ; higher = more thermally stable
[3] = test system: HeLa Kyoto; experiment: solubility change mitosis vs G1/S (difference of NP-40 vs SDS log2 ratios) (log2 ratio difference); higher = more soluble in mitosis
[4] = test system: HeLa Kyoto; experiment: solubility in G1/S (NP-40 vs SDS abundance) (log2 ratio); higher = more soluble; conditions: cell cycle stage: G1/S
[5] = cell cycle stage: early G1 (4.5 h after nocodazole release)
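Throughout, for melting temperature (median over replicates), in situ: HeLa Kyoto cells synchronized by double thymidine or nocodazole block, proteins quantified by TMT10plex mass spectrometry, three independent biological replicates.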
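Throughout, for solubility change mitosis vs G1/S (difference of NP-40 vs SDS log2 ratios): synchronized HeLa Kyoto cells (double thymidine block for G1/S, nocodazole release for mitosis), protein amounts in NP-40 versus SDS lysates quantified by mass spectrometry, three biological replicates.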
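Throughout, for solubility in G1/S (NP-40 vs SDS abundance): HeLa Kyoto cells arrested at G1/S by double thymidine block, proteins quantified by TMT10plex mass spectrometry in mild NP-40 versus SDS extracts, three biological replicates.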
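Throughout, for thermal stability score vs G1/S (z-score of summed log2 fold changes over temperatures): synchronized HeLa Kyoto cells, proteins quantified by TMT10plex mass spectrometry, three biological replicates, mitosis taken 0.5 h after nocodazole release, G1/S directly after double thymidine block.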

Substance | thermal stability score [1, 5] | thermal stability score ([1]; cell cycle stage: mitosis) | melting temperature ([2]; cell cycle stage: G1/S) [°C] | solubility change mitosis (log2) [3] | solubility in G1/S (log2) [4] | melting temperature ([2]; cell cycle stage: mitosis) [°C]
MSRHEGVSCDACLKGNFRGRRYKCLICYDYDLCASCYESGATTTRHTTDHPMQCILTRVDFDLYYGGEAFSVEQPQSFTCPYCGKMGYTETSLQEHVTSEHAETSTEVICPICAALPGGDPNHVTDDFAAHLTLEHRAPRDLDESSGVRHVRRMFHPGRGLGGPRARRSNMHFTSSSTGGLSSSQSSYSPSNREAMDPIAELLSQLSGVRRSAGGQLNSSGPSASQLQQLQMQLQLERQHAQAARQQLETARNATRRTNTSSVTTTITQSTATTNIANTESSQQTLQNSQFLLTRLNDPKMSETERQSMESERADRSLFVQELLLSTLVREESSSSDEDDRGEMADFGAMGCVDIMPLDVALENLNLKESNKGNEPPPPPL [KCMF1] | -1.31 | -1.41 | 51.7 | 0.00437 | -0.415 | 
MSKTNKSKSGSRSSRSRSASRSRSRSFSKSRSRSRSLSRSRKRRLSSRSRSRSYSPAHNRERNHPRVYQNRDFRGHNRGYRRPYYFRGRNRGFYPWGQYNRGGYGNYRSNWQNYRQAYSPRRGRSRSRSPKRRSPSPRSRSHSRNSDKSSSDRSRRSSSSRSSSNHSRVESSKRKSAKEKKSSSKDSRPSQAAGDNQGDEAKEQTFSGGTSQDTKASESSKPWPDATYGTGSASRASAVSELSPRERSPALKSPLQSVVVRRRSPRPSPVPKPSPPLSSTSQMGSTLPSGAGYQSGTHQGQFDHGSGSLSPSKKSPVGKSPPSTGSTYGSSQKEESAASGGAAYTKRYLEEQKTENGKDKEQKQTNTDKEKIKEKGSFSDTGLGDGKMKSDSFAPKTDSEKPFRGSQSPKRYKLRDDFEKKMADFHKEEMDDQDKDKAKGRKESEFDDEPKFMSKVIGANKNQEEEKSGKWEGLVYAPPGKEKQRKTEELEEESFPERSKKEDRGKRSEGGHRGFVPEKNFRVTAYKAVQEKSSSPPPRKTSESRDKLGAKGDFPTGKSSFSITREAQVNVRMDSFDEDLARPSGLLAQERKLCRDLVHSNKKEQEFRSIFQHIQSAQSQRSPSELFAQHIVTIVHHVKEHHFGSSGMTLHERFTKYLKRGTEQEAAKNKKSPEIHRRIDISPSTFRKHGLAHDEMKSPREPGYKAEGKYKDDPVDLRLDIERRKKHKERDLKRGKSRESVDSRDSSHSRERSAEKTEKTHKGSKKQKKHRRARDRSRSSSSSSQSSHSYKAEEYTEETEEREESTTGFDKSRLGTKDFVGPSERGGGRARGTFQFRARGRGWGRGNYSGNNNNNSNNDFQKRNREEEWDPEYTPKSKKYYLHDDREGEGSDKWVSRGRGRGAFPRGRGRFMFRKSSTSPKWAHDKFSGEEGEIEDDESGTENREEKDNIQPTTE [THRAP3] | -5.24 | -3.44 | 50.5 | 0.46 | -1.38 | 51.2
MAAARATTPADGEEPAPEAEALAAARERSSRFLSGLELVKQGAEARVFRGRFQGRAAVIKHRFPKGYRHPALEARLGRRRTVQEARALLRCRRAGISAPVVFFVDYASNCLYMEEIEGSVTVRDYIQSTMETEKTPQGLSNLAKTIGQVLARMHDEDLIHGDLTTSNMLLKPPLEQLNIVLIDFGLSFISALPEDKGVDLYVLEKAFLSTHPNTETVFEAFLKSYSTSSKKARPVLKKLDEVRLRGRKRSMVG [TP53RK] | 0.0261 | -0.818 | 55.1 | -0.151 | 0.367 | 53
MSGFSTEERAAPFSLEYRVFLKNEKGQYISPFHDIPIYADKDVFHMVVEVPRWSNAKMEIATKDPLNPIKQDVKKGKLRYVANLFPYKGYIWNYGAIPQTWEDPGHNDKHTGCCGDNDPIDVCEIGSKVCARGEIIGVKVLGILAMIDEGETDWKVIAINVDDPDAANYNDINDVKRLKPGYLEATVDWFRRYKVPDGKPENEFAFNAEFKDKDFAIDIIKSTHDHWKALVTKKTNGKGISCMNTTLSESPFKCDPDAARAIVDALPPPCESACTVPTDVDKWFHHQKN [PPA1] | 0.184 | -1.97 | 54.1 | 0.0519 | 0.43 | 54.2
RAB1A | -1.51 | -4.28 | 60.3 | -0.093 | 0.166 | 60.6
MSSVSPIQIPSRLPLLLTHEGVLLPGSTMRTSVDSARNLQLVRSRLLKGTSLQSTILGVIPNTPDPASDAQDLPPLHRIGTAALAVQVVGSNWPKPHYTLLITGLCRFQIVQVLKEKPYPIAEVEQLDRLEEFPNTCKMREELGELSEQFYKYAVQLVEMLDMSVPAVAKLRRLLDSLPREALPDILTSIIRTSNKEKLQILDAVSLEERFKMTIPLLVRQIEGLKLLQKTRKPKQDDDKRVIAIRPIRRITHISGTLEDEDEDEDNDDIVMLEKKIRTSSMPEQAHKVCVKEIKRLKKMPQSMPEYALTRNYLELMVELPWNKSTTDRLDIRAARILLDNDHYAMEKLKKRVLEYLAVRQLKNNLKGPILCFVGPPGVGKTSVGRSVAKTLGREFHRIALGGVCDQSDIRGHRRTYVGSMPGRIINGLKTVGVNNPVFLLDEVDKLGKSLQGDPAAALLEVLDPEQNHNFTDHYLNVAFDLSQVLFIATANTTATIPAALLDRMEIIQVPGYTQEEKIEIAHRHLIPKQLEQHGLTPQQIQIPQVTTLDIITRYTREAGVRSLDRKLGAICRAVAVKVAEGQHKEAKLDRSDVTEREGCREHILEDEKPESISDTTDLALPPEMPILIDFHALKDILGPPMYEMEVSQRLSQPGVAIGLAWTPLGGEIMFVEASRMDGEGQLTLTGQLGDVMKESAHLAISWLRSNAKKYQLTNAFGSFDLLDNTDIHLHFPAGAVTKDGPSAGVTIVTCLASLFSGRLVRSDVAMTGEITLRGLVLPVGGIKDKVLAAHRAGLKQVIIPRRNEKDLEGIPGNVRQDLSFVTASCLDEVLNAAFDGGFTVKTRPGLLNSKL [LONP2] | 0.257 | 0.49 | 52.3 | -0.132 | 0.0116 | 52.1
MQRVSGLLSWTLSRVLWLSGLSEPGAARQPRIMEEKALEVYDLIRTIRDPEKPNTLEELEVVSESCVEVQEINEEEYLVIIRFTPTVPHCSLATLIGLCLRVKLQRCLPFKHKLEIYISEGTHSTEEDINKQINDKERVAAAMENPNLREIVEQCVLEPD [FAM96A] | 0.017 | -0.983 | 54.9 | 0.184 | 0.0285 | 55.3
MSAKAISEQTGKELLYKFICTTSAIQNRFKYARVTPDTDWARLLQDHPWLLSQNLVVKPDQLIKRRGKLGLVGVNLTLDGVKSWLKPRLGQEATVGKATGFLKNFLIEPFVPHSQAEEFYVCIYATREGDYVLFHHEGGVDVGDVDAKAQKLLVGVDEKLNPEDIKKHLLVHAPEDKKEILASFISGLFNFYEDLYFTYLEINPLVVTKDGVYVLDLAAKVDATADYICKVKWGDIEFPPPFGREAYPEEAYIADLDAKSGASLKLTLLNPKGRIWTMVAGGGASVVYSDTICDLGGVNELANYGEYSGAPSEQQTYDYAKTILSLMTREKHPDGKILIIGGSIANFTNVAATFKGIVRAIRDYQGPLKEHEVTIFVRRGGPNYQEGLRVMGEVGKTTGIPIHVFGTETHMTAIVGMALGHRPIPNQPPTAAHTANFLLNASGSTSTPAPSRTASFSESRADEVAPAKKAKPAMPQDSVPSPRSLQGKSTTLFSRHTKAIVWGMQTRAVQGMLDFDYVCSRDEPSVAAMVYPFTGDHKQKFYWGHKEILIPVFKNMADAMRKHPEVDVLINFASLRSAYDSTMETMNYAQIRTIAIIAEGIPEALTRKLIKKADQKGVTIIGPATVGGIKPGCFKIGNTGGMLDNILASKLYRPGSVAYVSRSGGMSNELNNIISRTTDGVYEGVAIGGDRYPGSTFMDHVLRYQDTPGVKMIVVLGEIGGTEEYKICRGIKEGRLTKPIVCWCIGTCATMFSSEVQFGHAGACANQASETAVAKNQALKEAGVFVPRSFDELGEIIQSVYEDLVANGVIVPAQEVPPPTVPMDYSWARELGLIRKPASFMTSICDERGQELIYAGMPITEVFKEEMGIGGVLGLLWFQKRLPKYSCQFIEMCLMVTADHGPAVSGAHNTIICARAGKDLVSSLTSGLLTIGDRFGGALDAAAKMFSKAFDSGIIPMEFVNKMKKEGKLIMGIGHRVKSINNPDMRVQILKDYVRQHFPATPLLDYALEVEKITTSKKPNLILNVDGLIGVAFVDMLRNCGSFTREEADEYIDIGALNGIFVLGRSMGFIGHYLDQKRLKQGLYRHPWDDISYVLPEHMSM [ACLY] | 2.8 | 4.04 | 52.2 | -0.156 | -0.0323 | 52.6
MGSRVSREDFEWVYTDQPHADRRREILAKYPEIKSLMKPDPNLIWIIIMMVLTQLGAFYIVKDLDWKWVIFGAYAFGSCINHSMTLAIHEIAHNAAFGNCKAMWNRWFGMFANLPIGIPYSISFKRYHMDHHRYLGADGVDVDIPTDFEGWFFCTAFRKFIWVILQPLFYAFRPLFINPKPITYLEVINTVAQVTFDILIYYFLGIKSLVYMLAASLLGLGLHPISGHFIAEHYMFLKGHETYSYYGPLNLLTFNVGYHNEHHDFPNIPGKSLPLVRKIAAEYYDNLPHYNSWIKVLYDFVMDDTISPYSRMKRHQKGEMVLE [DEGS1] | -0.898 | -1.88 | 55 | -0.264 | -0.186 | 55.2
